By Kd is commonly meant the free concentration of one partner at which half of the binding sites on the other are occupied at equilibrium, for simple one-to-one binding. Lower therefore signals tighter binding.

Read-outs that look alike come from different tables or passages of the source.

Holding throughout (experiment): SPR
(SPR reads the build-up and loss of mass on a sensor chip optically.)

The target of assay [1] is 16E6L/V (C-terminal peptide of HPV16 early protein E6 with L158V) (human papilloma virus 16).
Assay [2] has the same target. This is another data set of the same source.
Assay [3] shares this target. The source holds these as a separate data set.
The target is the same in assay [4]. The source holds these as a separate data set.

Sequence of MAGI1-2/6 (MBP fusion of the second of the six PDZ domains of MAGI1) (Q6RHR9 448-572): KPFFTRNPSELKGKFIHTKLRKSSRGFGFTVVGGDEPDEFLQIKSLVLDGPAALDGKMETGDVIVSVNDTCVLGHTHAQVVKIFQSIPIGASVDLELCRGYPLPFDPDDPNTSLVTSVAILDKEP
Sequence of SCRIB-3/4 (MBP fusion of the third of the four PDZ domains of SCRIB) (Q14160 997-1093): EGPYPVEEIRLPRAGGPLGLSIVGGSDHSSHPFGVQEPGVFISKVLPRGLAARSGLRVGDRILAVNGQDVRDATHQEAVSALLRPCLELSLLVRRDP
Sequence of MAGI1-3/6 (MBP fusion of the third of the six PDZ domains of MAGI1) (Q6RHR9 613-752): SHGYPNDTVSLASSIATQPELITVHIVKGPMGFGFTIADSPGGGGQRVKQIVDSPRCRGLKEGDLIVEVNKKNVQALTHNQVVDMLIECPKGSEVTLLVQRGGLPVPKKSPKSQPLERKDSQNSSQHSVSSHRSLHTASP
Sequence of SCRIB-34/4 (MBP fusion of the tandem of the third and fourth PDZ domains of SCRIB) (Q14160 997-1193): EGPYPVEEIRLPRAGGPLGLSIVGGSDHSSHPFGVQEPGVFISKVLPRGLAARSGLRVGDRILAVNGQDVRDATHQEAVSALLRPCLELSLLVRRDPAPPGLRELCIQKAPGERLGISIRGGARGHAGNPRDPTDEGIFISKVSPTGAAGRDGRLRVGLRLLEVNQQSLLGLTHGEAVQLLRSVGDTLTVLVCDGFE

Take “MAGI1-2/6 (MBP fusion of the second of the six PDZ domains of MAGI1) (from UniProt Q6RHR9-1 448-572) (domain or fragment)”: the Kd was found to be 18 µM in assay [1], 2 µM in assay [2] and 1 µM in assay [3].

On to “MAGI1-3/6 (MBP fusion of the third of the six PDZ domains of MAGI1) (from UniProt Q6RHR9-1 613-752) (domain or fragment)”, for which the equilibrium dissociation constant (Kd) in assay [1] was 76 µM; in assay [2] it was 69 µM; in assay [3], 202 µM.

As for “SCRIB-3/4 (MBP fusion of the third of the four PDZ domains of SCRIB) (from UniProt Q14160-1 997-1093) (domain or fragment)”, the Kd in assay [1] is 41 µM; in assay [2], 18 µM; in assay [3] it was 32 µM.

Regarding “SCRIB-34/4 (MBP fusion of the tandem of the third and fourth PDZ domains of SCRIB) (from UniProt Q14160-1 997-1193) (domain or fragment)”, the values for the equilibrium dissociation constant (Kd) in assay [4] and in assay [2] were 4 µM and 3 µM, respectively.

Values taken from paper PMC3206016, “Putting into Practice Domain-Linear Motif Interaction Predictions for Exploration of Protein Networks” (PLoS ONE, 2011).
